# Data as given in PMC11960969, “Mdga2 deficiency leads to an aberrant activation of BDNF/TrkB signaling that underlies autism-relevant synaptic and behavioral changes in mice” (PLOS Biology, 2025).
# B1: MDGA2-ΔMAM: truncated form of MDGA2 lacking its MAM domain (protein)
# chain: PPTVRIVHSGLACNIEEERYSERVYTIREGETLELTCLVTGHPRPQIRWTKTAGSASDRFQDSSVFNETLRITNIQRHQGGRYYCKAENGLGSPAIKSIRVDVYYLDDPVVTVHQSIGEAKEQFYYERTVFLRCVANSNPPVRYSWRRGQEVLLQGSDKGVEIYEPFFTQGETKILKLKNLRPQDYANYSCIASVRNVCNIPDKMVSFRLSNKTASPSIKLLVDDPIVVNPGEAITLVCVTTGGEPAPSLTWVRSFGTLPEKTVLNGGTLTIPAITSDDAGTYSCIANNNVGNPAKKSTNIIVRALKKGRFWITPDPYHKDDNIQIGREVKISCQVEAVPSEELTFSWFKNGRPLRSSERMVITQTDPDVSPGTTNLDIIDLKFTDFGTYTCVASLKGGGISDISIDVNISSSTVPPNLTVPQEKSPLVTREGDTIELQCQVTGKPKPIILWSRADKEVAMPDGSMQMESYDGTLRIVNVSREMSGMYRCQTSQYNGFNVKPREALVQLIVQYPPAVEPAFLEIRQGQDRSVTMSCRVLRAYPIRVLTYEWRLGNKLLRTGQFDSQEYTEYAVKSLSNENYGVYNCSIINEAGAGRCSFLVTGKAYAPEFYYDTYNPVWQNRHRVYSYSLQWTQMNPDAVDRIVAYRLGIRQAGQQRWWEQEIKINGNIQKGELITYNLTELIKPEAYEVRLTPLTKFGEGDSTIRVIKYSAPVNPHLREQDLATKNSVD
# modifications: left off: GFP, end not stated, kept
# notes: truncated form of MDGA2 lacking its MAM domain
# Assays:
# BDNF-TrkB interaction = assay: BDNF-TrkB Co-IP (anti-BDNF or anti-TrkB) in primary neurons / brain of Het, KO, WT and in WT neurons transfected with MDGA2 or ΔMAM; format: cell-based, mouse; conditions: IP anti-BDNF, Fig 3I
# Description: (§1) Fig 3 MDGA2 interacts with TrkB and suppresses TrkB activity. (A) Primary hippocampal neurons derived from Mdga2^ +/− (Het) mice and their wild-type (WT) littermates at DIV 7 were treated with different doses of BDNF for 30 min. Equal amounts of protein lysates were subjected to immunoprecipitation (IP) with an anti-TrkB antibody, followed by immunoblotting with an anti-phosphotyrosine (pTyr) antibody or the anti-TrkB antibody. The pTyr levels were quantified by densitometry, normalized to total TrkB levels, and then compared to those of WT controls. n = 3 per group. (B) WT mouse brain lysates were subjected to IP with an anti-MDGA2 antibody and a control IgG, and immunoblotted (IB) for the components indicated. mBDNF, mature BDNF; ImBDNF, immature BDNF. […] Immunoprecipitated TrkB levels were quantified by densitometry, normalized to input levels, and compared to respective controls (set to one arbitrary units). n = 3 per group. […] Levels of phosphorylated proteins were quantified by densitometry, normalized to respective total protein levels and compared to controls (set to one arbitrary units). n = 6 per group. […] P-values were determined by two-tailed unpaired Student t-test in (A) and one-way ANOVA with Tukey’s multiple comparisons test in (H, I, J). *p < 0.05, **p < 0.01, ***p < 0.001, ns: not significant. […]
# TrkB (TrkB-Flag) = assay: Co-IP of MDGA2 and its truncations with TrkB-Flag in HEK293T cells; format: binding, human; conditions: HEK293T cells co-transfected with TrkB-Flag and GFP-tagged MDGA2 constructs
# Description: as §1, with “BDNF. (C) Hippocampal neurons from WT mice at DIV 7 were immunostained with antibodies against MDGA2 (red) and TrkB (green), and then counter-stained with DAPI (blue). Images were acquired by a confocal microscope. Scale bar: 10 μm. (D) Surface plasmon resonance (SPR) analysis of the binding between recombinant MDGA2 protein and recombinant TrkB protein. TrkB was immobilized on a Biacore CM5 chip and tested for its binding with MDGA2 at the concentrations indicated. (E) Computer simulation of the binding mode of TrkB and MDGA2. The predicted binding domain of TrkB (the d5 domain) is highlighted by a red square and labeled in brown. The predicted binding domain of MDGA2 (the MAM domain) is highlighted by a red square and labeled in yellow.” for “BDNF.”
# TrkB (TrkB-VN) = assay: BiFC assay in HeLa cells (TrkB-VN with MDGA2-VC or ΔMAM-VC); format: cell-based, human; conditions: 24 h, Venus fluorescence
# Description: as §1
# [1] = tested on: TrkB signaling (pTrkB, pAkt, pmTOR); assay: Immunoblotting of TrkB/Akt/mTOR phosphorylation in primary neurons transfected with MDGA2, ΔMAM or V930I; format: cell-based, mouse; conditions: for pAkt level normalized to total protein / pTrkB level normalized to total protein / pmTOR level normalized to total protein: KO neurons transfected, WT/Ctrl set to one
# Description: Fig 3 MDGA2 interacts with TrkB and suppresses TrkB activity. (A) Primary hippocampal neurons derived from Mdga2^ +/− (Het) mice and their wild-type (WT) littermates at DIV 7 were treated with different doses of BDNF for 30 min. Equal amounts of protein lysates were subjected to immunoprecipitation (IP) with an anti-TrkB antibody, followed by immunoblotting with an anti-phosphotyrosine (pTyr) antibody or the anti-TrkB antibody. The pTyr levels were quantified by densitometry, normalized to total TrkB levels, and then compared to those of WT controls. n = 3 per group. (B) WT mouse brain lysates were subjected to IP with an anti-MDGA2 antibody and a control IgG, and immunoblotted (IB) for the components indicated. mBDNF, mature BDNF; ImBDNF, immature BDNF. (C) Hippocampal neurons from WT mice at DIV 7 were immunostained with antibodies against MDGA2 (red) and TrkB (green), and then counter-stained with DAPI (blue). Images were acquired by a confocal microscope. Scale bar: 10 μm. (D) Surface plasmon resonance (SPR) analysis of the binding between recombinant MDGA2 protein and recombinant TrkB protein. TrkB was immobilized on a Biacore CM5 chip and tested for its binding with MDGA2 at the concentrations indicated. (E) Computer simulation of the binding mode of TrkB and MDGA2. The predicted binding domain of TrkB (the d5 domain) is highlighted by a red square and labeled in brown. The predicted binding domain of MDGA2 (the MAM domain) is highlighted by a red square and labeled in yellow. (F) HEK293T cells were co-transfected with TrkB-Flag and GFP-tagged full-length MDGA2 (MDGA2-GFP) or an MDGA2 deletion fragment lacking the entire MAM domain (ΔMAM-GFP). Cell lysates were subjected to IP with control IgG and antibodies against Flag or GFP, and immunoblotted for the components indicated. […] The scheme of MDGA2-ΔMAM is also shown. (G) HeLa cells were co-transfected with TrkB that is tagged with the N-terminal Venus fragment (TrkB-VN) and full-length MDGA2 or MDGA2-ΔMAM that are tagged with the C-terminal Venus fragment (MDGA2-VC or ΔMAM-VC) for 24 h. After immunostaining with antibodies against MDGA2/MDGA2-ΔMAM (pink) and TrkB (red), cells were observed by confocal microscopy. Venus signal (green) indicates the interaction between MDGA2 and TrkB. Schematic diagrams depicting the BiFC assay are also shown. Scale bars: 10 μm. (H, I) Equal amounts of protein lysates from primary neurons derived from Het, KO, and their WT littermate mice (H), and from WT primary neurons transfected with GFP control, MDGA2-GFP or ΔMAM-GFP (I) were subjected to IP with IgG and an anti-BDNF antibody, and then immunoblotted for the components indicated. Immunoprecipitated TrkB levels were quantified by densitometry, normalized to input levels, and compared to respective controls (set to one arbitrary units). n = 3 per group. (J) Neurons derived from KO mice were transfected with GFP control (Ctrl), MDGA2-GFP, or MDGA2-ΔMAM-GFP, and neurons derived from their WT littermates were transfected with GFP control (Ctrl). Equal amounts of protein lysates were subjected to immunoblotting for the proteins indicated. Levels of phosphorylated proteins were quantified by densitometry, normalized to respective total protein levels and compared to controls (set to one arbitrary units). n = 6 per group. Data represent mean ± SEM. P-values were determined by two-tailed unpaired Student t-test in (A) and one-way ANOVA with Tukey’s multiple comparisons test in (H, I, J). *p < 0.05, **p < 0.01, ***p < 0.001, ns: not significant. The data underlying this figure can be found in S1 Data, specifically in the sheet labeled “Figure 3”.
# Fig 7 The autism spectrum disorder (ASD)-associated MDGA2 V930I mutation impairs the MDGA2-TrkB interaction and MDGA2’s inhibitory effect on the tyrosine kinase B (TrkB) signaling. (A) Schematic depiction of the WT human MDGA2 and its V930I mutation constructs that are tagged with GFP. […]
molecule,measurement,setting,value
B1,interaction between BDNF and TrkB upon overexpression,BDNF-TrkB interaction,not MDGA2-ΔMAM
same,interaction with TrkB (Co-IP),TrkB (TrkB-Flag),abolished the MDGA2-TrkB interaction
same,interaction with TrkB (BiFC),TrkB (TrkB-VN),not MDGA2-ΔMAM
same,pAkt level normalized to total protein,[1]; replicate 1,2.92 arbitrary units
same,pTrkB level normalized to total protein,[1]; replicate 1,2.14 arbitrary units
same,pmTOR level normalized to total protein,[1]; replicate 1,3.01 arbitrary units
same,pAkt level normalized to total protein,[1]; replicate 2,2.51 arbitrary units
same,pTrkB level normalized to total protein,[1]; replicate 2,2.17 arbitrary units
same,pmTOR level normalized to total protein,[1]; replicate 2,2.5 arbitrary units
same,pAkt level normalized to total protein,[1]; replicate 3,2.41 arbitrary units
same,pTrkB level normalized to total protein,[1]; replicate 3,2.23 arbitrary units
same,pmTOR level normalized to total protein,[1]; replicate 3,2.06 arbitrary units
same,pAkt level normalized to total protein,[1]; replicate 4,2.21 arbitrary units
same,pTrkB level normalized to total protein,[1]; replicate 4,2.41 arbitrary units
same,pmTOR level normalized to total protein,[1]; replicate 4,1.59 arbitrary units
same,pAkt level normalized to total protein,[1]; replicate 5,1.76 arbitrary units
same,pTrkB level normalized to total protein,[1]; replicate 5,2.01 arbitrary units
same,pmTOR level normalized to total protein,[1]; replicate 5,1.49 arbitrary units
same,pAkt level normalized to total protein,[1]; replicate 6,1.68 arbitrary units
same,pTrkB level normalized to total protein,[1]; replicate 6,1.69 arbitrary units
same,pmTOR level normalized to total protein,[1]; replicate 6,1.31 arbitrary units
same,"overactivation of TrkB signaling (pTrkB, pAkt, pmTOR) upon expression","[1]; Mdga2-/- neurons, Fig 3J, n = 6",not MDGA2-ΔMAM
